What is called Kd is the constant that tells how readily two partners part at equilibrium. One may read the koff as a measure of how fast the partners let go of each other. As a reminder, the kon is the second-order rate constant of association.

Common to all, as to test: SPR Biacore T200; binder captured on protein A chip, target as analyte
A general note: Surface plasmon resonance follows binding to a sensor surface in real time, without labels.

Assay [1] addresses human CD40 (hCD40-his) (human, UniProt P25942 21-193). Here is the method: Binding affinity to human CD40 of the obtained fusion proteins PDL1-C40-6A7-FV3A (IgG1), PDL1-C40-6A7-FV3A-IgG4, PDL1-C40-6A7-FV3C (IgG1), PDL1-C40-6A7-FV3A1 (IgG1), PDL1-C40-6A7-FV3A2 (IgG1), and PDL1-C40-6A7-FV3A3 (IgG1) were determined by surface plasmon resonance (SPR) using Biacore™ T200 biosensor equipped with pre-immobilized protein A sensor chips. The original anti-CD40 monoclonal antibody C40-6A7 IgG2 (6A7, VH SEQ ID NO: 91, VL SEQ ID NO: 92), which the scFV was derived from, was used as a control.

The target of assay [2] is human CTLA4 (hCTLA4-His) (human, UniProt P16410 36-161, limits assumed). As to the method:
(§1) Binding affinities of the fusion proteins against human CTLA4 (hCTLA4-His) or human PD-L1 (hPDL1) were measured by surface plasmon resonance (SPR) using Biacore™ T200 biosensor equipped with pre-immobilized protein A sensor chips. A CTLA4 antibody CT4-4G12-IgG1 (CT4) was used as a control. ATOR1015-CD86 (CD86) and KN035-IgG1 (with D265A mutation in heavy chain constant domain) were also used as controls.

For assay [3], the target named is T1, 6×Histidine-tagged human PD-L1 protein (hPDL1-His) (human, UniProt Q9NZQ7 19-238).
T1 construct: also called hPL1-His; His-tagged human PD-L1
As to the method: as §1

T1 sequence (Q9NZQ7 19-238 limits assumed): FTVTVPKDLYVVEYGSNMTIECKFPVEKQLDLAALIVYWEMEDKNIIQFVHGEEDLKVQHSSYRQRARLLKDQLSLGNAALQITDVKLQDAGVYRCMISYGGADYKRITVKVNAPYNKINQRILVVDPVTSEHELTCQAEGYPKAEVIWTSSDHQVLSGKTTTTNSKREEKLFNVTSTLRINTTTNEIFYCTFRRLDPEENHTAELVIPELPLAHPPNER
human CD40 (hCD40-his), sequence (P25942 21-193 limits assumed): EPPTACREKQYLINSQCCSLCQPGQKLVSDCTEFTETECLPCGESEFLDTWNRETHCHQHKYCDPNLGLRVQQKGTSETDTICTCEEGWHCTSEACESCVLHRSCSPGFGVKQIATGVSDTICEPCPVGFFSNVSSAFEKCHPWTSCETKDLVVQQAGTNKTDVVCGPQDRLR
human CTLA4 (hCTLA4-His), sequence (P16410 36-161 limits assumed): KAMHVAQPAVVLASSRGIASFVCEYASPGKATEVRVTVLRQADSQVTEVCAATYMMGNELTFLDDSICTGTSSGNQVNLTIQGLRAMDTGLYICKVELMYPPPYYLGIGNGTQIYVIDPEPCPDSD

B1: PDL1-C40-6A7-FV3A (IgG1) (bispecific antibody)
heavy: EVQLLESGGGLVQPGGSLRLSCAASGFTFSSYIMMWVRQAPGKGLEWVSSIYPSGGITFYADTVKGRFTISRDNSKNTLYLQMNSLRAEDTAVYYCARIKLGTVTTVDYWGQGTLVTVSSASTKGPSVFPLAPSSKSTSGGTAALGCLVKDYFPEPVTVSWNSGALTSGVHTFPAVLQSSGLYSLSSVVTVPSSSLGTQTYICNVNHKPSNTKVDKKVEPKSCDKTHTCPPCPAPELLGGPSVFLFPPKPKDTLMISRTPEVTCVVVDVSHEDPEVKFNWYVDGVEVHNAKTKPREEQYNSTYRVVSVLTVLHQDWLNGKEYKCKVSNKALPAPIEKTISKAKGQPREPQVYTLPPSRDEGGGGSGGGGSDVVMTQSPLSLPVTLGQPASISCRSSQSLLHSNGNTYLHWYQQRPGQSPNHLIYQVSNRFSGVPDRFSGSGSGTDFTLKISRVEAEDVGVYFCSQTTHVPWTFGCGTKVEIKGGGGSGGGGSGGGGSGGGGSQVQLVQSGAEVKKPGASVKLSCKASGYTFISYYIYWVKQAPGQCLEWIGGINPRNGGTNFNEKFKSRATLTVDTSISTAYMELSRLRSEDTAVYYCTRHGNGVYWGQGTTLTVSSGGGGSGGGGSVSLTCLVKGFYPSDIAVEWESNGQPENNYKTTPPVLDSDGSFFLYSKLTVDKSRWQQGNVFSCSVMHEALHNHYTQKSLSLSPGK
light: QSALTQPASVSGSPGQSITISCTGTSSDVGGYNYVSWYQQHPGKAPKLMIYDVSNRPSGVSNRFSGSKSGNTASLTISGLQAEDEADYYCSSYTSSSTRVFGTGTKVTVLGQPKANPTVTLFPPSSEELQANKATLVCLISDFYPGAVTVAWKADGSPVKAGVETTKPSKQSNNKYAASSYLSLTPEQWKSHRSYSCQVTHEGSTVEKTVAPTECS
notes: IgG1; also called G3
Consider B1, for which, in assay [1], the Kd is 1.09 nM, the koff was 0.000427 s⁻¹ and the kon is 391000 M⁻¹ s⁻¹.

B2: ATOR1015-CD86 (ligand)
chain: APLKIQAYFNETADLPCQFANSQNLSLSELVVFWQDQENLVLNEVYLGKERFDSVDSKYMGRTSFDSDSWTLRLHNLQIKDKGRYQCIIHHKKPTGMINIHQMNSELSVLA
notes: Used as control captured on a protein A chip
B2: in assay [2], binding was put at a Kd of 1.02 nM, the koff was 0.000297 s⁻¹ and the on-rate (kon) was determined as 291000 M⁻¹ s⁻¹.

B3: KN035-IgG1 (D265A) (Fc fusion, not shown: a dimerising Fc or GST)
VHH: QVQLVESGGGLVQPGGSLRLSCAASGFTFSRRCMAWFRQAPGKERERVAKLLTTSGSTYLADSVKGRFTISRDNSKNTVYLQMNSLRAEDTAVYYCAADSFEDPTCTLVTSSGAFQYWGQGTLVTVSS
notes: Control; with D265A mutation in heavy chain constant domain; also called KN035-PDL1
In assay [3], B3 had a Kd of 11.5 nM, a dissociation rate constant (koff) of 0.0204 s⁻¹ and an on-rate constant (kon) of 1.78e+06 M⁻¹ s⁻¹.

B4: CT4-KN035-3A-knob-IgG1 (bispecific antibody)
heavy 1: EVQLVESGGGLVQPGGSLRLSCAASGFTFSSYTMSWVRQAPGKGLEWVATISRGGGYTSYPDSVKGRFTISRDNSKNTLYLQMNSLRAEDTAVYYCAREDYGSSYVHWFAYWGQGTLVTVSAASTKGPSVFPLAPSSKSTSGGTAALGCLVKDYFPEPVTVSWNSGALTSGVHTFPAVLQSSGLYSLSSVVTVPSSSLGTQTYICNVNHKPSNTKVDKKVEPKSCDKTHTCPPCPAPELLGGPSVFLFPPKPKDTLMISRTPEVTCVVVDVSHEDPEVKFNWYVDGVEVHNAKTKPREEQYNSTYRVVSVLTVLHQDWLNGKEYKCKVSNKALPAPIEKTISKAKGQPREPQVCTLPPSREEGGGGSGGGGSQVQLVESGGGLVQPGGSLRLSCAASGFTFSRRCMAWFRQAPGKERERVAKLLTTSGSTYLADSVKGRFTISRDNSKNTVYLQMNSLRAEDTAVYYCAADSFEDPTCTLVTSSGAFQYWGQGTLVTVSSGGGGSGGGGSVSLWCLVKGFYPSDIAVEWESNGQPENNYKTTPPVLDSDGSFFLYSKLTVDKSRWQQGNVFSCSVMHEALHNHYTQKSLSLSPGK
heavy 2: not shown
light: DIQMTQSPSFLSASVGDRVTITCRAGENIYSYLAWYQQKPGKAPKLLIYNARTLAEGVPSRFSGSGSGTEFTLTISSLQPEDFATYYCQHHYGSPRTFGGGTKLEIKRTVAAPSVFIFPPSDEQLKSGTASVVCLLNNFYPREAKVQWKVDNALQSGNSQESVTEQDSKDSTYSLSSTLTLSKADYEKHKVYACEVTHQGLSSPVTKSFNRGEC
notes: IgG1 with knobs-in-holes; KN035 on the knob chain only
In assay [3], B4 came in with a Kd of 11.7 nM, a koff of 0.00231 s⁻¹ and a kon of 197000 M⁻¹ s⁻¹.

B5: CT4-KN035-3A-hole-IgG1 (bispecific antibody)
heavy 1: EVQLVESGGGLVQPGGSLRLSCAASGFTFSSYTMSWVRQAPGKGLEWVATISRGGGYTSYPDSVKGRFTISRDNSKNTLYLQMNSLRAEDTAVYYCAREDYGSSYVHWFAYWGQGTLVTVSAASTKGPSVFPLAPSSKSTSGGTAALGCLVKDYFPEPVTVSWNSGALTSGVHTFPAVLQSSGLYSLSSVVTVPSSSLGTQTYICNVNHKPSNTKVDKKVEPKSCDKTHTCPPCPAPELLGGPSVFLFPPKPKDTLMISRTPEVTCVVVDVSHEDPEVKFNWYVDGVEVHNAKTKPREEQYNSTYRVVSVLTVLHQDWLNGKEYKCKVSNKALPAPIEKTISKAKGQPREPQVYTLPPSRCEGGGGSGGGGSQVQLVESGGGLVQPGGSLRLSCAASGFTFSRRCMAWFRQAPGKERERVAKLLTTSGSTYLADSVKGRFTISRDNSKNTVYLQMNSLRAEDTAVYYCAADSFEDPTCTLVTSSGAFQYWGQGTLVTVSSGGGGSGGGGSVSLSCAVKGFYPSDIAVEWESNGQPENNYKTTPPVLDSDGSFFLVSKLTVDKSRWQQGNVFSCSVMHEALHNHYTQKSLSLSPGK
heavy 2: not shown
light: DIQMTQSPSFLSASVGDRVTITCRAGENIYSYLAWYQQKPGKAPKLLIYNARTLAEGVPSRFSGSGSGTEFTLTISSLQPEDFATYYCQHHYGSPRTFGGGTKLEIKRTVAAPSVFIFPPSDEQLKSGTASVVCLLNNFYPREAKVQWKVDNALQSGNSQESVTEQDSKDSTYSLSSTLTLSKADYEKHKVYACEVTHQGLSSPVTKSFNRGEC
notes: IgG1 with knobs-in-holes; KN035 on the hole chain only; also called CT4-KN035-3A-kole
With B5, in assay [3], binding was put at a Kd of 20.4 nM, the koff was 0.0019 s⁻¹ and the on-rate (kon) is 92700 M⁻¹ s⁻¹.

B6: PD1-KN035-3A-IgG1 (bispecific antibody)
heavy: EVQLVESGGGLVQPGGSLRLSCAASGFTFSSYSMSWVRQAPGKRLEWVAHISSGGSSTYYPDTVKGRFTISRDNSKNTLYLQMNSLRAEDTAMYYCTRQFYYGSSFWYFDVWGAGTTVTVSSASTKGPSVFPLAPSSKSTSGGTAALGCLVKDYFPEPVTVSWNSGALTSGVHTFPAVLQSSGLYSLSSVVTVPSSSLGTQTYICNVNHKPSNTKVDKKVEPKSCDKTHTCPPCPAPELLGGPSVFLFPPKPKDTLMISRTPEVTCVVVDVSHEDPEVKFNWYVDGVEVHNAKTKPREEQYNSTYRVVSVLTVLHQDWLNGKEYKCKVSNKALPAPIEKTISKAKGQPREPQVYTLPPSREEGGGGSGGGGSQVQLVESGGGLVQPGGSLRLSCAASGFTFSRRCMAWFRQAPGKERERVAKLLTTSGSTYLADSVKGRFTISRDNSKNTVYLQMNSLRAEDTAVYYCAADSFEDPTCTLVTSSGAFQYWGQGTLVTVSSGGGGSGGGGSVSLTCLVKGFYPSDIAVEWESNGQPENNYKTTPPVLDSDGSFFLYSKLTVDKSRWQQGNVFSCSVMHEALHNHYTQKSLSLSPGK
light: DNVLTQSPATLSVSPGERATLSCKASQSVDFDGDSYMNWYQQKPGQPPRLLIYAASNLESGIPARFSGSGSGTDFTLTISSVEPEDFATYYCQQSNEDPPTFGGGTKVEIKRTVAAPSVFIFPPSDEQLKSGTASVVCLLNNFYPREAKVQWKVDNALQSGNSQESVTEQDSKDSTYSLSSTLTLSKADYEKHKVYACEVTHQGLSSPVTKSFNRGEC
notes: IgG1
In assay [3], B6 gave a Kd of 14.1 nM, a dissociation rate constant (koff) of 0.00687 s⁻¹ and an on-rate (kon) of 487000 M⁻¹ s⁻¹.

(Values after patent US20240360201A1 (BIOCYTOGEN PHARMACEUTICALS BEIJING, published 2024).)
